Here are results for one substance from patent publication US20180072816A1.

The assay addresses human CXCR4 (human) (UniProt P61073). The assay is described as follows: cell-based or functional assay.

Sequence of human CXCR4 (human) (P61073 whole entry): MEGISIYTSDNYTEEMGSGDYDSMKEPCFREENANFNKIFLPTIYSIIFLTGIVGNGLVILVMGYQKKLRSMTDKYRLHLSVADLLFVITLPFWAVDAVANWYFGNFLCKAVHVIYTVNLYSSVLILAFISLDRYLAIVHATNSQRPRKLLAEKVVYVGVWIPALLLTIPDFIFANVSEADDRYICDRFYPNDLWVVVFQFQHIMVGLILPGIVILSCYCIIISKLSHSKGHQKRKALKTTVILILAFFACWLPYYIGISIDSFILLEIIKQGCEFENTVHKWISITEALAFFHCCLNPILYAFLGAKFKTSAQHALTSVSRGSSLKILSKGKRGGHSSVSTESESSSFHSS

Take anti-CXCR4 MAb 12G5 (antibody): the IC50 (nM) in β-Arrestin BRET assay (Antagonist mode in the presence of 100 nM SDF-1) came out at 64 nM.
